Experimental data reported in PMC7337490, “Molecular basis of MKLP2-dependent Aurora B transport from chromatin to the anaphase central spindle” (The Journal of Cell Biology, 2020).
Square brackets hold non-standard residues; d marks the D form. Ends that are not written are not given here. pT = C[C@@H](OP(=O)(O)O)[C@H](N)C(=O)O

B1: H3pT3 (1–12) phosphopeptide (peptide)
peptide: AR[pT]KQTARKSTG
notes: also called pH3T3; H3pT3 phosphopeptide; source: synthetic peptide (Peptide Protein Research Ltd)
B2: H3 (1–12) peptide (peptide)
peptide: ARTKQTARKSTG
notes: histone H3 residues 1-12; also called H3T3 nonphosphopeptide; nonphosphorylated H3 peptide; source: synthetic peptide (Peptide Protein Research Ltd)
B3: GFP-MKLP2 Δ636-652 (natural protein, human, UniProt O95235 1-890, looked up)
chain: MSQGILSPPAGLLSDDDVVVSPMFESTAADLGSVVRKNLLSDCSVVSTSLEDKQQVPSEDSMEKVKVYLRVRPLLPSELERQEDQGCVRIENVETLVLQAPKDSFALKSNERGIGQATHRFTFSQIFGPEVGQASFFNLTVKEMVKDVLKGQNWLIYTYGVTNSGKTHTIQGTIKDGGILPRSLALIFNSLQGQLHPTPDLKPLLSNEVIWLDSKQIRQEEMKKLSLLNGGLQEEELSTSLKRSVYIESRIGTSTSFDSGIAGLSSISQCTSSSQLDETSHRWAQPDTAPLPVPANIRFSIWISFFEIYNELLYDLLEPPSQQRKRQTLRLCEDQNGNPYVKDLNWIHVQDAEEAWKLLKVGRKNQSFASTHLNQNSSRSHSIFSIRILHLQGEGDIVPKISELSLCDLAGSERCKDQKSGERLKEAGNINTSLHTLGRCIAALRQNQQNRSKQNLVPFRDSKLTRVFQGFFTGRGRSCMIVNVNPCASTYDETLHVAKFSAIASQLVHAPPMQLGFPSLHSFIKEHSLQVSPSLEKGAKADTGLDDDIENEADISMYGKEELLQVVEAMKTLLLKERQEKLQLEMHLRDEICNEMVEQMQQREQWCSEHLDTQKELLEEMYEEKLNILKESLTSALLQEARQQSVAHQQSGSELALRRSQRLAASASTQQLQEVKAKLQQCKAELNSTTEELHKYQKMLEPPPSAKPFTIDVDKKLEEGQKNIRLLRTELQKLGESLQSAERACCHSTGAGKLRQALTTCDDILIKQDQTLAELQNNMVLVKLDLRKKAACIAEQYHTVLKLQGQVSAKKRLGTNQENQQPNQQPPGKKPFLRNLLPRTPTCQSSTDCSPYARILRSRRSPLLKSGPFGKKY
notes: source: HeLa, transfected, in lysate; not shown: EGFP, N-terminal, kept
B4: MKLP2^557-668 (domain or fragment, human, UniProt O95235 557-668, looked up)
chain: MYGKEELLQVVEAMKTLLLKERQEKLQLEMHLRDEICNEMVEQMQQREQWCSEHLDTQKELLEEMYEEKLNILKESLTSFYQEEIQERDEKIEELEALLQEARQQSVAHQQS
notes: source: E. coli BL21-CodonPlus (DE3)-RIL, purified (Glutathione Sepharose, SEC); not shown: His6, N-terminal, cleaved; GST, N-terminal, cleaved
B5: INCENP^1-80 (recombinant) (domain or fragment, human, UniProt Q9NQS7 1-80, looked up)
chain: MGTTAPGPIHLLELCDQKLMEFLCNMDNKDLVWLEEIQEEAERMFTREFSKEPELMPKTPSQKNRRKKRRISYVQDENRD
notes: INCENP, human, residues 1-80; Subunit in the rows of two; also called I^80; source: E. coli BL21-CodonPlus (DE3)-RIL, purified within the complex; not shown: His6, N-terminal, cleaved; GST, N-terminal, cleaved
B6: borealin^10-109 (domain or fragment, human, UniProt Q53HL2 10-109, looked up)
chain: VAKTNSLRRRKLASFLKDFDREVEIRIKQIESDRQNLLKEVDNLYNIEILRLPKALREMNWLDYFALGGNKQALEEAATADLDITEINKLTAEAIQTPLK
notes: borealin, human, residues 10-109; Subunit in the rows of two; source: E. coli BL21-CodonPlus (DE3)-RIL, co-expressed with survivin (pETDuet-1), purified within the complex

Tests used:
[1] = molecular target: T1, CPI80^RRKKRR (CPI80 with the INCENP RRKKRR-motif replaced with alanine residues) (human, UniProt O15392 1-142; Q9NQS7 1-80; Q53HL2 10-109, RRKKRR to hexa-alanine); assay: ITC; 400 µM peptide injected into 50 µM protein; 100 mM NaCl, 20 mM Tris-HCl pH 7.2, 1 mM DTT; 25°C; 1:1 binding model; conditions: both partners purified
T1 construct: survivin, human; INCENP, human, residues 1-80 with RRKKRR to hexa-alanine; borealin, human, residues 10-109 as in CPI80; not restated for this mutant; also called CPI80^RRKKRR mutant; source: E. coli BL21-CodonPlus (DE3)-RIL, purified (Glutathione Sepharose, SEC); not shown: His6, N-terminal, cleaved; GST, N-terminal, cleaved; copies: + +

[2] = molecular target: T2, MKLP2^557-668:CPI80 (survivin, INCENP^1-80, borealin^10-109) (human, UniProt O95235 557-668; O15392 1-142; Q9NQS7 1-80; Q53HL2 10-109); assay: as above; conditions: both partners purified
T2 construct: survivin, human; INCENP, human, residues 1-80; borealin, human, residues 10-109; also called MKLP2:CPI80; not shown: His6, N-terminal, cleaved; GST, N-terminal, cleaved; copies: 2 + 2 + 2 + 2

[3] = molecular target: CPI58 as used in ITC, SEC and ATPase assays (survivin, borealin, INCENP 1–58) (human, UniProt O15392 1-142; Q9NQS7 1-58; Q53HL2 1-280); assay: as above; conditions: both partners purified
[4] = molecular target: T3, CPI80 (survivin, INCENP^1-80, borealin^10-109) (human, UniProt O15392 1-142; Q9NQS7 1-80; Q53HL2 10-109); assay: as above; conditions: both partners purified
T3 construct: survivin, human; INCENP, human, residues 1-80; borealin, human, residues 10-109; 1:1:1 trimer by SEC-MALS; also called WT CPI80; source: E. coli BL21-CodonPlus (DE3)-RIL, purified (Glutathione Sepharose, SEC); not shown: His6, N-terminal, cleaved; GST, N-terminal, cleaved; copies: 1 + 1 + 1

[5] = molecular target: CPI58 as used in ITC, SEC and ATPase assays (survivin, borealin, INCENP 1–58) (human, UniProt O15392 1-142; Q9NQS7 1-58; Q53HL2 1-280, Structural Zn2+ on survivin C57/C60/H77/C84. Survivin is taken from the authors' construct entity (entity number = survivin number + 2; leading GP tag scar left out). Borealin 10-109 is inferred from); assay: as above; conditions: both partners purified
[6] = molecular target: the molecule itself; assay: SEC; 1 mg lysate of nocodazole-arrested HeLa cells on Superose 6 10/300 at 4°C; fractions Western blotted for MKLP2 and GFP; size from calibration standards
[7] = molecular target: the molecule itself; assay: SEC-MALS; samples at 1 mg/ml on Superose 6 10/300 GL, room temperature; 100 mM NaCl, 20 mM Tris-HCl pH 8.0, 1 mM DTT, 10% glycerol
[8] = molecular target: T4, CPI80^(Survivin E65A-H80A) (human, UniProt O15392 1-142; Q9NQS7 1-80; Q53HL2 10-109, E65A | H80A); assay: SEC; CPC variants and MKLP2^557-668 mixed 1:1, 30 min on ice in 100 mM NaCl, 20 mM Tris-HCl pH 8.0, 1 mM DTT, 10% glycerol; analytical Superdex 200 increase 10/300 at 4°C; fractions on stained gels; conditions: both partners purified
T4 construct: survivin, human, E65A H80A; INCENP, human, residues 1-80; borealin, human, residues 10-109 as in CPI80; not restated for this mutant; also called CPI80^E65A-H80A; survivin^E65A-H80A CPI80; source: E. coli BL21-CodonPlus (DE3)-RIL, purified (Glutathione Sepharose, SEC); not shown: His6, N-terminal, cleaved; GST, N-terminal, cleaved; copies: + +

[9] = molecular target: B6; assay: SEC-MALS; samples at 1 mg/ml on Superose 6 10/300 GL, room temperature; 100 mM NaCl, 20 mM Tris-HCl pH 8.0, 1 mM DTT, 10% glycerol; conditions: both partners purified
[10] = molecular target: T5, survivin (full-length, recombinant, as subunit of the CPI complexes) (human, UniProt O15392 1-142); assay: as above; conditions: both partners purified
T5 construct: survivin, human, full length; Never handled alone; stands for the subunit in the rows of two; source: E. coli BL21-CodonPlus (DE3)-RIL, co-expressed with borealin (pETDuet-1), purified within the complex
T5 sequence (O15392 whole entry, one chain of several): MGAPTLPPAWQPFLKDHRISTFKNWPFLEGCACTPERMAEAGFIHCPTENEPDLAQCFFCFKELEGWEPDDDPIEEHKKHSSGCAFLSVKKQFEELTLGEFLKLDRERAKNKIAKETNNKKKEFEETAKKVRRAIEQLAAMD

T1 sequence (O15392 whole entry, stated change not applied, chain 1 of 3, one chain of several, the tested form may be a part): as the sequence (O15392 whole entry, one chain of several) above
T1 sequence (Q9NQS7 other isoform, or with tags, fused parts or gaps RRKKRR to hexa-alanine | RRKKRR to hexa-alanine, chain 2 of 3, one chain of several): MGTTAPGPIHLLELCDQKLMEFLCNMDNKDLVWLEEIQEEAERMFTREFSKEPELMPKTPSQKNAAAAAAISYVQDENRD
T3 sequence (O15392 whole entry, chain 1 of 3, one chain of several, the tested form may be a part): as the sequence (O15392 whole entry, one chain of several) above
CPI58 as used in ITC, SEC and ATPase assays (survivin, borealin, INCENP 1–58) (human, UniProt O15392 1-142; Q9NQS7 1-58; Q53HL2 1-280, Structural Zn2+ on survivin C57/C60/H77/C84. Survivin is taken from the authors' construct entity (entity number = survivin number + 2; leading GP tag scar left out). Borealin 10-109 is inferred from), sequence (A2SUH6 whole entry, chain 1 of 3, one chain of several): as the sequence (O15392 whole entry, one chain of several) above
T4 sequence (O15392 whole entry E65A/H80A, the tested form may be a part, one chain of several): as the sequence (O15392 whole entry, one chain of several) above, with E65A, H80A counted along it

With B1 as the binder, how does the Kd [1] read?
Its Kd is 600 ± 300 nM.

What about the Kd [2] of the same binder?
The Kd was less than 1000 nM.

And the Kd [3]?
The Kd was 800 nM.

And the Kd [4]?
Its Kd is 1100 nM.

How did the Kd [5] turn out when B2 was run?
The Kd was 5600 nM.

And the Kd [1]?
Its Kd is 3300 ± 500 nM.

What about the Kd [2] of the same binder?
Its Kd is 2800 ± 300 nM.

And the Kd [4]?
The Kd was 4600 nM.

How did the “stoichiometry N” value [6] turn out when B3 was run?
Its value is 2.

Which “stoichiometry N” value [7] does the source give for B4 here?
The value was 2.

Does B4 bind [8]?
Result: binds

B5 was tested. Which “stoichiometry N” value [9] did it give?
Its value is 1.

And the “stoichiometry N” value [10]?
The value was 1.

How did the “stoichiometry N” value [10] turn out when B6 was run?
Its value is 1.
